# In article PMC12507662 (Nature, 2025):
# B1: Nb1_gbHSV (VHH)
# VHH: QVQLVESGGGSVQPGGSLRLSCAASASGRLSMSGALGWYRQVQGKSRELVATITDRSSTNYADSVKGRFTISIDDAENTMYLQMNSLKPEDTGVYYCNARWRGMNVWGKGTRVTVSS
# notes: alpaca VHH from an immune library; Unlabelled form used for grating-coupled interferometry, cryo-EM with stabilized HSV-1 gB and plaque reduction; also called the nanobody; neutralizing nanobody; source: E. coli SHuffle Express, cytoplasmic, purified (Ni2+ chelate column, eluted by cleaving the tag with Ulp1p)
# Target: postfusion gB (ectodomain of wild type) (herpes simplex virus 1 (HSV-1), UniProt A1Z0P7)
# Experiment: grating-coupled interferometry; gB immobilised by C-terminal Twin-Strep-tag on Strep-Tactin XT chip (400 pg mm^-2); 25 °C; 20 mM HEPES pH 8.0, 300 mM NaCl; waveRAPID tight binder protocol, 200 nM Nb1_gbHSV, regeneration with 3 M GuHCl
# Settings: both partners purified
binder,measurement,value
B1,binding result,no binding (tested: 200 nM)
